# Publication PMC10287916, “MSH2-MSH3 promotes DNA end resection during homologous recombination and blocks polymerase theta-mediated end-joining through interaction with SMARCAD1 and EXO1” (Nucleic Acids Research, 2023)
# B1: SMARCAD1, purified (enzyme, human, UniProt Q9H4L7 1-1026, looked up)
# chain: MNLFNLDRFRFEKRNKIEEAPEATPQPSQPGPSSPISLSAEEENAEGEVSRANTPDSDITEKTEDSSVPETPDNERKASISYFKNQRGIQYIDLSSDSEDVVSPNCSNTVQEKTFNKDTVIIVSEPSEDEESQGLPTMARRNDDISELEDLSELEDLKDAKLQTLKELFPQRSDNDLLKLIESTSTMDGAIAAALLMFGDAGGGPRKRKLSSSSEPYEEDEFNDDQSIKKTRLDHGEESNESAESSSNWEKQESIVLKLQKEFPNFDKQELREVLKEHEWMYTEALESLKVFAEDQDMQYVSQSEVPNGKEVSSRSQNYPKNATKTKLKQKFSMKAQNGFNKKRKKNVFNPKRVVEDSEYDSGSDVGSSLDEDYSSGEEVMEDGYKGKILHFLQDASIGELTLIPQCSQKKAQKITELRPFNSWEALFTKMSKTNGLSEDLIWHCKTLIQERDVVIRLMNKCEDISNKLTKQVTMLTGNGGGWNIEQPSILNQSLSLKPYQKVGLNWLALVHKHGLNGILADEMGLGKTIQAIAFLAYLYQEGNNGPHLIVVPASTIDNWLREVNLWCPTLKVLCYYGSQEERKQIRFNIHSRYEDYNVIVTTYNCAISSSDDRSLFRRLKLNYAIFDEGHMLKNMGSIRYQHLMTINANNRLLLTGTPVQNNLLELMSLLNFVMPHMFSSSTSEIRRMFSSKTKSADEQSIYEKERIAHAKQIIKPFILRRVKEEVLKQLPPKKDRIELCAMSEKQEQLYLGLFNRLKKSINNLEKNTEMCNVMMQLRKMANHPLLHRQYYTAEKLKEMSQLMLKEPTHCEANPDLIFEDMEVMTDFELHVLCKQYRHINNFQLDMDLILDSGKFRVLGCILSELKQKGDRVVLFSQFTMMLDILEVLLKHHQHRYLRLDGKTQISERIHLIDEFNTDMDIFVFLLSTKAGGLGINLTSANVVILHDIDCNPYNDKQAEDRCHRVGQTKEVLVIKLISQGTIEESMLKINQQKLKLEQDMTTVDEGDEGSMPADIATLLKTSMGL
# notes: SMARCAD1, human, full length; source: Hi5 insect cells (baculovirus), purified (HisTrap HP, Superdex 200)
# How the values were obtained:
# [1] = biological target: T1, MSH2-MSH3 (MutSβ), purified (human, UniProt P43246 1-934; P20585 1-1137); test: co-IP; in vitro immunoprecipitation: purified first protein on antibody-conjugated Dynabead protein G, washed with buffer X, second purified protein added for 1 h; western blot; settings: both partners purified
# T1 construct: MSH2, human, full length; MSH3, human, full length; Purified on a HisTrap HP column; also called MSH2-MSH3 heterodimer; source: Hi5 insect cells (baculovirus), purified (HisTrap HP, Superdex 200)
# [2] = biological target: T2, MSH2-MSH6 (MutSα), purified (human, UniProt P43246 1-934; P52701 1-1360); test: native gel or EMSA; 4 μM or 8 μM SMARCAD1 incubated with 1 nM Cy5-labeled 40 bp homoduplex, GT mismatch or 58 bp flap DNA in buffer H with 1 mM ATP, then MSH2-MSH6 titrated, 5 min; settings: both partners purified
# T2 construct: MSH2, human, full length; MSH6, human, full length; source: Hi5 insect cells (baculovirus), purified (HiTrap Heparin HP, HiTrap Q HP, Superdex 200)
# T2 sequence (P43246 whole entry, chain 1 of 2): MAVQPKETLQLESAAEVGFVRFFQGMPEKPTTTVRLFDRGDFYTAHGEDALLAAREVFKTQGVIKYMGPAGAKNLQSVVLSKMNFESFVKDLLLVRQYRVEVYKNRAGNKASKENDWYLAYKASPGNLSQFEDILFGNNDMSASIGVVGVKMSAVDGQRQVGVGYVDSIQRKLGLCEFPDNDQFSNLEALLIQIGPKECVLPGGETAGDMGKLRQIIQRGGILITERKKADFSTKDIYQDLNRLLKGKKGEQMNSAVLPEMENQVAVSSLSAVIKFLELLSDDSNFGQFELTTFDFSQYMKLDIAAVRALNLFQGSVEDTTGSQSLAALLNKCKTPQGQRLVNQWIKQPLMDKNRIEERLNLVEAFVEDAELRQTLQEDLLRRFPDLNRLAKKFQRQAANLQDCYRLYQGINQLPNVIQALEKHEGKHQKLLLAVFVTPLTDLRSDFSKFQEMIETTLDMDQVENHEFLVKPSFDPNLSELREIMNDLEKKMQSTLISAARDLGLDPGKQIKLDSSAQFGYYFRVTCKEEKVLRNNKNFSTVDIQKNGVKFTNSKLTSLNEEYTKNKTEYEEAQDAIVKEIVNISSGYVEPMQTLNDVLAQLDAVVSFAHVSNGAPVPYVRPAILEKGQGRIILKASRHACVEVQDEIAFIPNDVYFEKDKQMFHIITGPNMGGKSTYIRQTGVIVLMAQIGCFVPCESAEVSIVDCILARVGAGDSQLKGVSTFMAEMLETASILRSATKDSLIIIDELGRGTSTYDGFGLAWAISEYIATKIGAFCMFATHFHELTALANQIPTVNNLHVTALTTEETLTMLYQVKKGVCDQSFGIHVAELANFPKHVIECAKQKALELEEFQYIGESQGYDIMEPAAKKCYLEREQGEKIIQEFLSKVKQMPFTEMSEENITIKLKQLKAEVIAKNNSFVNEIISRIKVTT
# T2 sequence (P52701 whole entry, chain 2 of 2): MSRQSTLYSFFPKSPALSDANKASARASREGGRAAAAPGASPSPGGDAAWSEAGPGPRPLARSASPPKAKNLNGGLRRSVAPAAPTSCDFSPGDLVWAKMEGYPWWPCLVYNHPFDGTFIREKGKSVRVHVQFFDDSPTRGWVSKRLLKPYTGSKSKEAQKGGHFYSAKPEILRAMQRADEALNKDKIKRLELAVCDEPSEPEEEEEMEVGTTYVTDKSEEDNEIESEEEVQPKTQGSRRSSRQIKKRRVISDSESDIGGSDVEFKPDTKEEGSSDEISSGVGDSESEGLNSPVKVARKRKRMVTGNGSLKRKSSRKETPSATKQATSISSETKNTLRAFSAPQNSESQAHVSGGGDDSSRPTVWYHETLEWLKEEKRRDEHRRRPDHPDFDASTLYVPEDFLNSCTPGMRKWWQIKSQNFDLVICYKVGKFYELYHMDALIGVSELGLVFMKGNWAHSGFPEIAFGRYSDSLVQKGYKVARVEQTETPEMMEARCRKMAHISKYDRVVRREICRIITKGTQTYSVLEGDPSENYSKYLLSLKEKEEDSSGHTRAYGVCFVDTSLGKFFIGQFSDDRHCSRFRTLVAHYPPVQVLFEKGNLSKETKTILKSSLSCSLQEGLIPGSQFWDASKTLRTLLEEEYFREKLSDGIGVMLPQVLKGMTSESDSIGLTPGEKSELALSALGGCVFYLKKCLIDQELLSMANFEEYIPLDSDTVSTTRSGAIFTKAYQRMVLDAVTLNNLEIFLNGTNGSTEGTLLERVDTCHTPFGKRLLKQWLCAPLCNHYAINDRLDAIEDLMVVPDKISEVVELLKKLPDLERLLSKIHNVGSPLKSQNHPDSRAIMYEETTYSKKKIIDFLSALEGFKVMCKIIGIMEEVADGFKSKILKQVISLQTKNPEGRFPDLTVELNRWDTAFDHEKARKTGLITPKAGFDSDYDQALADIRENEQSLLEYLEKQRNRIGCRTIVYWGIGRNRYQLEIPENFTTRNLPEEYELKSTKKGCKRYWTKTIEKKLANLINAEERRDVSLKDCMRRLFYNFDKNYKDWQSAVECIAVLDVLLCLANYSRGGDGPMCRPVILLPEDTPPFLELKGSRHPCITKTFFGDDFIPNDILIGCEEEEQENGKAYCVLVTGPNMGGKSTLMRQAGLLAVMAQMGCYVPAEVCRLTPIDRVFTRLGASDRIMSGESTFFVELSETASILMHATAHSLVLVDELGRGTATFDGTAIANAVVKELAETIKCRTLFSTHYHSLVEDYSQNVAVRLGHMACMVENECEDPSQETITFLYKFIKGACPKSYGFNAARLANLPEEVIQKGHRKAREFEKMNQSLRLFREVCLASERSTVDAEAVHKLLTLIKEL
# T1 sequence (P43246 whole entry, chain 1 of 2): as the sequence (P43246 whole entry, chain 1 of 2) above
# T1 sequence (P20585 whole entry, chain 2 of 2): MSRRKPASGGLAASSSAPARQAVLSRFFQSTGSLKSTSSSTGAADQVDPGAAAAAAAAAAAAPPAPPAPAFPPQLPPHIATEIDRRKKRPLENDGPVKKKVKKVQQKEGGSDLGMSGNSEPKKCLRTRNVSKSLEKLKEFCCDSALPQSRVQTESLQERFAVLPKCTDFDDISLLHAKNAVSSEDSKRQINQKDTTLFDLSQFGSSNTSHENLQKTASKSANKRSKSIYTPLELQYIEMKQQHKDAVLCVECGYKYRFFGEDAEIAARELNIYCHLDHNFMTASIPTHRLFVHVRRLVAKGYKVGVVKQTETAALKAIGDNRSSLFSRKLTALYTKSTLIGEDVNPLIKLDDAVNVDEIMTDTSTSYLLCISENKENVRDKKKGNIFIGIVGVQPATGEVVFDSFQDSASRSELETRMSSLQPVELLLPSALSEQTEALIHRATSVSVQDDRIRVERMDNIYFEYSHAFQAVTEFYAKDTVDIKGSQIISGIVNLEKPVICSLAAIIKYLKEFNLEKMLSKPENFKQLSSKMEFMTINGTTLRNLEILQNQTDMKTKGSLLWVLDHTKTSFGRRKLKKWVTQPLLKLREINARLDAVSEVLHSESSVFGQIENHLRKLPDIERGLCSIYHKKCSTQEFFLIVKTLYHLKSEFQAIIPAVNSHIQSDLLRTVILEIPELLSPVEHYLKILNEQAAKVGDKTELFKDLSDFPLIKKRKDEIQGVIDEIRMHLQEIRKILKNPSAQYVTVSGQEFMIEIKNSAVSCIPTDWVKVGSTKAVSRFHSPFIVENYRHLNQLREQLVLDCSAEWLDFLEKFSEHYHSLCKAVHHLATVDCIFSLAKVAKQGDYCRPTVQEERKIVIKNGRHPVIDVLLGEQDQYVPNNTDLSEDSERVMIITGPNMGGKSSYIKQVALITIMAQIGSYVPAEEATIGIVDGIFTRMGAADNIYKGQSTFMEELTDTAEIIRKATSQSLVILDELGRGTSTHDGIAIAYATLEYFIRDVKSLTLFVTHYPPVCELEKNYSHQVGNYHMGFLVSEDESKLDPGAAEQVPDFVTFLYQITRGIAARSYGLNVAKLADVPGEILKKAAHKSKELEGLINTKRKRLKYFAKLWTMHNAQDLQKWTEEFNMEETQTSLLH
binder,measurement,setting,value
B1,binding result,[1],binds
same,binding result,[2],binds
